Assay results from article PMC9646914, “Nicking mechanism underlying the DNA phosphorothioate-sensing antiphage defense by SspE” (Nature Communications, 2022).

Columns and labels:
[1] = system: SspE (Streptomyces yokosukanensis DSM 40224); experiment: MST; conditions: EMSA: 10 mM Tris-HCl pH 8.0 (20 mM in Fig 3 legend), 100 mM NaCl, 0.01 mM EDTA, 5% glycerol, 15 min 30 C, MST: 10 mM Tris-HCl pH 8.0, 100 mM NaCl, 12.5 nM DNA …
SspE = target: T1, SspE (Streptomyces yokosukanensis, UniProt A0A6I8WFL9); experiment: malachite green phosphate release (QuantiChrom ATPase/GTPase kit); format: biochemical; conditions: 100 uM GTP, 1 uM protein, alone or with 1 uM 40-bp DNA with or without phosphorothioate; Mg acetate 10 mM, pH 7.9, 28 C
T1 construct: full length, 771 residues (2,313-bp gene); NTD 1-324 GTPase (DGQQR motif 96-100), CTD 332-771 HNH nickase; expressed in E. coli BL21(DE3), Ni-NTA and Superdex 200
T1 sequence (A0A6I8WFL9 entry or part of it): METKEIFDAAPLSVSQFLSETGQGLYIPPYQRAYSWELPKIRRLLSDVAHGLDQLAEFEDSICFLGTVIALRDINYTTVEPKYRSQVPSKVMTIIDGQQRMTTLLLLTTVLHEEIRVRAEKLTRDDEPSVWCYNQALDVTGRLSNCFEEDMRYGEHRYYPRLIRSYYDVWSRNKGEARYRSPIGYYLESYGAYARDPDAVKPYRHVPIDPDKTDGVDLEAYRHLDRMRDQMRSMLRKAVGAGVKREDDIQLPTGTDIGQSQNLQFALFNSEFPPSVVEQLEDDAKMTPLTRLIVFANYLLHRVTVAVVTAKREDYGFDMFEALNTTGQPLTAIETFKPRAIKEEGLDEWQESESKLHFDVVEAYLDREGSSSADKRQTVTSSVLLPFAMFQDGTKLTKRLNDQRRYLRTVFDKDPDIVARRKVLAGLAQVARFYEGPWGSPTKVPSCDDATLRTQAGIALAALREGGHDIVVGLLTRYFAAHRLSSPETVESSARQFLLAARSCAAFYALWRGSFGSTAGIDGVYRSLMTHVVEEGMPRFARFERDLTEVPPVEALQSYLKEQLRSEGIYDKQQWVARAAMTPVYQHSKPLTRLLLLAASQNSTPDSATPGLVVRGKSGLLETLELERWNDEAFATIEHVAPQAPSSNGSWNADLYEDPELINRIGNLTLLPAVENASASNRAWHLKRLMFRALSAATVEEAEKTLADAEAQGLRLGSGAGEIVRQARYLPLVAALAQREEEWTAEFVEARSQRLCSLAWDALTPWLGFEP

[2] = system: SspE-CTD (Streptomyces yokosukanensis DSM 40224); experiment: EMSA; conditions: EMSA: 10 mM Tris-HCl pH 8.0 (20 mM in Fig 3 legend), 100 mM NaCl, 0.01 mM EDTA, 5% glycerol, 15 min 30 C; MST: 10 mM Tris-HCl pH 8.0, 100 mM NaCl, 12.5 nM DNA …
[3] = system: SspE K40A (Streptomyces yokosukanensis DSM 40224); experiment: EMSA; conditions: EMSA: 10 mM Tris-HCl pH 8.0 (20 mM in Fig 3 legend), 100 mM NaCl, 0.01 mM EDTA, 5% glycerol, 15 min 30 C; MST: 10 mM Tris-HCl pH 8.0, 100 mM NaCl, 12.5 nM DNA …
[4] = system: SspE (Streptomyces yokosukanensis DSM 40224); experiment: EMSA; conditions: EMSA: 10 mM Tris-HCl pH 8.0 (20 mM in Fig 3 legend), 100 mM NaCl, 0.01 mM EDTA, 5% glycerol, 15 min 30 C; MST: 10 mM Tris-HCl pH 8.0, 100 mM NaCl, 12.5 nM DNA …

**Q.** 2-kb PT DNA (CpsCA at both termini) was tested. Which Kd ([1]; phosphorothioate C12-C13 of primer #7 and C17-C18 of primer #8) did it give?
**A.** 8.5 µM

**Q.** How did the GTPase activity (SspE) turn out when Nc1nc2c(ncn2[C@@H]2O[C@H](COP(=O)(O)OP(=O)(O)OP(=O)(O)O)[C@@H](O)[C@H]2O)c(=O)[nH]1 [GTP] was run?
**A.** The GTP hydrolysis activity of SspE and its mutants was assayed

**Q.** With linearized pUC19 as the molecule, how does the Kd [2] read?
**A.** 3 µM

**Q.** And the Kd [3]?
**A.** 22.2 µM

**Q.** What about the Kd [4] of the same molecule?
**A.** 17.8 µM

**Q.** How did the Kd [1] turn out when 2-kb non-PT DNA (CCA) was run?
**A.** 18.4 µM
